{"source": "paper PMC5913352", "biological_target": "T1, PhoP (non-phosphorylated) (Escherichia coli ExPEC (APEC) FY26 (O2:K1, ST95)?) (UniProt Q8CXZ9)", "T1 sequence": "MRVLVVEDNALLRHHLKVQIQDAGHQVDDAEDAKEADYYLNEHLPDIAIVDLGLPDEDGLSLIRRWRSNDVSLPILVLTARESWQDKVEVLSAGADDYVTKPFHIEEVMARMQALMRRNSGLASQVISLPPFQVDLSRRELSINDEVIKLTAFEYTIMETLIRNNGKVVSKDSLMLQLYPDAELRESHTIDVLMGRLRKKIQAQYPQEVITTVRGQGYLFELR", "assay": "EMSA"}
{"sequence": "CAGGACTGAAACGCTTCCTTCATGTTGGTACTGCTATGTCTTGTACACCTCATACGGGGTCGCTAGTTAAGGAAGAGTCTGCTTCATCAGAAACAGGTGAACATTTAGTGGAGTATACGCATTCAAAAGCAACAATAGAATATCTGATGCGTAAGCAGTGTCCTGATTTACCTTTGTTGGTTGCCCGACCATCAATTATT (double strand)", "values": [{"measurement": "binding", "result": "no binding"}]}
